In the supplement of paper PMC10567573:
± gives the standard deviation.

Assay: protein stability index of a GFP-peptide fusion (GPS, HEK-293T) (PSI 1-6); higher = more stable
[1] = treatment: DMSO, c terminus: a fixed tail appended
[2] = treatment: MLN4924 1 uM, 8 h, c terminus: a fixed tail appended
[3] = treatment: DMSO, c terminus: native
[4] = treatment: MLN4924 1 uM, 8 h, c terminus: native
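Also: 24-mer peptide tiles fused after GFP, lentivirally expressed, FACS-sorted into six equal bins by GFP/DsRed ratio, decoded by Illumina sequencing, PSI is the read-weighted mean bin number.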

Sequence | protein stability index [1] | protein stability index [2] | protein stability index [3] | protein stability index [4]
KPSFQSGGRRRPPASSRNRSPSGS [RBMY1A1] | 4.93 ± 0.33 | 5.35 ± 0.32 |  | 
KRKKLSTWKQELLKLMDRHKKDCA [ZNF75A] | 2.7 ± 0.15 | 2.83 ± 0.21 |  | 
KSAILVPSEKKVAIIRTPPKSPAT [MAP2] | 4.32 ± 0.14 | 4.41 ± 0.1 |  | 
KVRSLETENSALQLQVTEREEVRG [LMNB1] | 5.22 ± 0.35 | 5.53 ± 0.15 |  | 
KYKVHGKEILRTLQDVFCWLPLAT [PPEF2] | 3.08 ± 0.62 | 3.3 ± 1.7 |  | 
LALCQRYYHRGHVDPANDTFDIDP [MCOLN1] | 3.11 ± 0.13 | 3.23 ± 0.29 |  | 
LASYLEKVRQLERDNAELEKLIQE [KRT34] | 3.33 ± 0.22 | 3.5 ± 0.24 |  | 
LAYYEVCSWKGATKQRIQDQKVPY [CHIT1] | 2.71 ± 0.4 | 2.8 ± 0.37 |  | 
LCGAGSEPSIAPTSCAGNLPSRPP [RSPH3] | 4.36 ± 0.36 | 4.28 ± 0.21 |  | 
LDCADALLKAGADVNKTDHSQRTA [INVS] | 5.09 ± 0.38 | 5.13 ± 0.43 |  | 
LDKQAKLSRAYDGTTYLPGIVGLN [USP39] | 3.15 ± 0.39 | 3.1 ± 0.2 |  | 
LDMRRDHEEQLQRLKLLKDREVDA [FBF1] | 5.08 ± 0.21 | 4.91 ± 0.3 |  | 
LDNLLAFVCDIRPEIHENYRING [ATP6V1G1] |  |  | 2.27 ± 0.49 | 2.47 ± 0.21
LDSVSPCPSSPKQIHLDVDNDRTT [DLC1] | 5.37 ± 0.13 | 5.55 ± 0.099 |  | 
LEALLEAAGIGKLSTADGKAFADP [ANKRD17] | 3.42 ± 0.38 | 3.31 ± 0.15 |  | 
LEATVKKLEESKQLLKNNEKLITW [SASS6] | 2.73 ± 1.2 | 3.44 ± 0.62 |  | 
LEQFVAILPKELQTWVRDHHPENG [ZNF24] | 3.2 ± 0.1 | 3.23 ± 0.21 |  | 
LESEGSPETLTNLRKGYLFMYNLV [HACD3] | 2.02 ± 0.2 | 1.97 ± 0.27 |  | 
LESLQDGAAESPYAYSNGIDYKTT [RAB40C] | 4.29 ± 0.34 | 4.5 ± 0.16 |  | 
LEVKIRDWYQRQRPSEIKDYSPYF [KRT16] | 2.19 ± 0.2 | 2.24 ± 0.49 |  | 
LEWHDSLFQILSERQDMYQCLVEG [ZNF511] | 2.42 ± 0.24 | 2.43 ± 0.29 |  | 
LFTSFQEPPCEGNTFFCHSNMCIN [NETO1] | 2.14 ± 0.42 | 2.13 ± 0.41 |  | 
LGAGGGSLLPGAVEQPQPQFISRF [NEK8] | 3.14 ± 0.21 | 3.32 ± 0.46 |  | 

Sequence | protein stability index [1] | protein stability index [2] | protein stability index [3] | protein stability index [4]
LGGEDGEKELISMECYDIYSKTWT [GAN] | 3.31 ± 0.45 | 3.19 ± 0.24 |  | 
LGSPYGQPPRFPVPHNGSSEATLP [PDLIM4] | 4.52 ± 0.31 | 4.6 ± 0.22 |  | 
LGVYSALREIAFTRQLHEKTSQLS [ATE1] | 2.59 ± 0.71 | 2.4 ± 0.69 |  | 
LGYLLLGAATNVFLFVLARVPAGI [MFSD9] | 3.29 ± 0.69 | 2.94 ± 0.4 |  | 
LHLESELAQTRAEGQRQAQEYEAL [KRT18] | 5.07 ± 0.2 | 5.08 ± 0.26 |  | 
LIKALKIFQEKHVNLLHIESRKSK [TPH1] | 2.28 ± 0.12 | 2.22 ± 0.23 |  | 
LIKKYSDHLENVSKLVESGIQFMD [TRIM55] | 2.27 ± 0.18 | 2.66 ± 0.2 |  | 
LKAKKVWYDMFRDAAAILLDEQNK [ZMAT5] | 2.38 ± 0.1 | 2.26 ± 0.17 |  | 
LKFLEENKIKVMHKQLLLFHNAVS [ARFIP2] | 2.41 ± 0.44 | 2.17 ± 0.26 |  | 
LKLYYRRLFPYSQYYRWLNYGGVI [PRIM1] | 2.07 ± 0.7 | 2.6 ± 1.2 |  | 
LKSKAEAEALYQTKFQELQLAAGR [KRT71] | 3.73 ± 0.22 | 3.85 ± 0.41 |  | 
LKYENELALRQGVEADINGLRRVL [KRT15] | 3.35 ± 0.23 | 3.6 ± 0.18 |  | 
LLDCFGIPVLMALSWFILHARYRV [SLC35F2] | 3.07 ± 0.33 | 3.64 ± 0.27 |  | 
LLESSSSYKNLTLKFHKLVNVTIH [MCOLN1] | 2.58 ± 0.41 | 2.33 ± 0.55 |  | 
LLKALVSELSEHLRDPLTSLSHTE [FCHSD1] | 2.44 ± 0.42 | 2.2 ± 0.17 |  | 
LLLEPGSLYILRGSARYDFSHEIL [ALKBH7] | 2.58 ± 1.2 | 2.58 ± 1.3 |  | 
LLQHLLEACGRCEEVPEAYVDIHT [PYCR3] | 2.1 ± 0.48 | 2.42 ± 0.66 |  | 
LLREEEYVAPPRGPLPTLQVVPL [TRAF3IP2] |  |  | 2.35 ± 0.3 | 2.05 ± 0.33
LLSLDPVQDKTPLYSQLLQAYKWS [MED27] | 2.04 ± 0.22 | 1.97 ± 0.2 |  | 
LLYWGIAEDHLDGCCKRRYLQKIE [KCNG1] | 1.95 ± 0.33 | 2.3 ± 0.12 |  | 
LMAEGLLPAVKVFLDWLRTNPDLI [SMG5] | 2.57 ± 0.38 | 2.6 ± 0.56 |  | 
LMAPTCVFLASKVEEFGVVSNTRL [CCNC] | 2.2 ± 0.34 | 2.21 ± 0.14 |  | 
LMILRRVVNESTVCLMGHERRQTL [TENT5C] | 2.33 ± 0.18 | 2.34 ± 0.32 |  | 

Sequence | protein stability index [1] | protein stability index [2] | protein stability index [3] | protein stability index [4]
LNELPVPMVARYIRINPQSWFDNG [CPXM2] | 2.21 ± 0.42 | 2.43 ± 0.28 |  | 
LNMAKKSVDIVSSHWDLNHTHPSA [PLD5] | 3.1 ± 0.3 | 3.2 ± 0.28 |  | 
LPGNEEFQVVKDAVLDCLLDFLPK [TENT5D] | 2.32 ± 0.39 | 2.4 ± 0.21 |  | 
LPLERDAESFLLKSPIAPCSLDKR [CDC25B] | 4.35 ± 0.18 | 4.35 ± 0.15 |  | 
LPPYPPYFEGAPFPHPLWLRDTYK [PWWP2B] | 2.54 ± 0.39 | 2.5 ± 0.12 |  | 
LQPLSKPLSSQPQAIVTEDKTDIS [MLH1] | 5.31 ± 0.19 | 5.19 ± 0.14 |  | 
LQTPLDIRLKESINCQLSDPSSTK [TRIM14] | 4.62 ± 0.29 | 4.55 ± 0.34 |  | 
LRKRKEIREDRDRARLDSMVLLIM [DLC1] | 2.08 ± 0.51 | 2.17 ± 0.34 |  | 
LRLRKERVSDVQKVLQGGEQEIQF [PKD2L1] | 3.74 ± 0.17 | 3.77 ± 0.34 |  | 
LRNNQISHKGAEELALALKGNTTL [LRRC45] | 3.92 ± 0.14 | 4.05 ± 0.21 |  | 
LRSRYSVASFKFDAGEVSYLPRDF [MYORG] | 2.37 ± 0.12 | 2.42 ± 0.37 |  | 
LSEPDPSHTLEERVVHWYFKLLDK [SMOC2] | 2.61 ± 0.46 | 2.84 ± 0.29 |  | 
LSFQEELLYWGIAEDHLDGCCKRR [KCNG1] | 2.35 ± 0.36 | 2.61 ± 0.26 |  | 
LSGATKKGTEKQTTSETQKSVQCG [NETO1] | 5.17 ± 0.27 | 5.22 ± 0.24 |  | 
LSLLELLELLLDASALTLVLGGRR [SCNN1D] | 2.99 ± 0.95 | 2.32 ± 0.56 |  | 
LSLNMDNLQDTLEAASFLQILPVL [KLHL13] | 2.66 ± 0.52 | 2.72 ± 0.45 |  | 
LSNKNGKNVELKFVDSIRRQFEFS [TENT5C] | 2.56 ± 0.24 | 2.48 ± 0.42 |  | 
LTGLNYEAPKYHIPYWVAYYLALL [NSDHL] | 2.71 ± 0.59 | 2.87 ± 0.48 |  | 
LTKYPTDRDSIWKCLKFLGSRHPT [INTS4] | 2.38 ± 0.19 | 2.39 ± 0.095 |  | 
LTLAQGAGEEDPSGMVTIITGLPL [SMG5] | 2.98 ± 0.43 | 2.76 ± 0.44 |  | 
LTQPLQGGTPHCEPCQLPSESPGS [DNAAF3] | 5.17 ± 0.2 | 5.12 ± 0.12 |  | 
LTRHTKKTHSQELMKESLQTGDLL [PLAGL1] | 4.35 ± 0.28 | 4.59 ± 0.12 |  | 
LTSLKDLYKSLKTLSAELVPWLNL [CEP70] | 3.15 ± 0.57 | 3.07 ± 0.42 |  | 

Sequence | protein stability index [1] | protein stability index [2] | protein stability index [3] | protein stability index [4]
LVDEEEKVLIQKNLGPKSKVLILR [ADD1] | 3.16 ± 0.5 | 2.84 ± 0.25 |  | 
LVGKPKIFIIQACRGNQHDVPVIP [CASP6] | 2.56 ± 0.66 | 2.1 ± 0.2 |  | 
LVHTQEPGEWLELLLEPGSLYILR [ALKBH7] | 2.38 ± 1 | 2.23 ± 0.28 |  | 
LVRTLYKVQNECPGITRVYSIGRS [CPN1] | 2.27 ± 0.55 | 2.11 ± 0.14 |  | 
LVSPERAQPPDYTFPSGSGAHFPQ [PI4K2A] | 3.96 ± 0.3 | 4.13 ± 0.25 |  | 
LWARGTWTQATGLGCALLAAHAVV [SOAT2] | 3.01 ± 0.11 | 3.2 ± 1.6 |  | 
LWASQREKEVLRRERAVEWRERAV [ZBED2] | 3.15 ± 0.44 | 3.38 ± 0.11 |  | 
LYHRADVEKVLRRWVDEEWPKRER [EDARADD] | 2.87 ± 0.31 | 2.94 ± 0.45 |  | 
LYQLEGNNQITCRNGQWSEPPKCL [CFHR2] | 3.08 ± 0.29 | 2.98 ± 0.18 |  | 
LYRDDVLIKPSRVVAILAAACLLQ [GMCL1] | 3.05 ± 0.84 | 2.45 ± 0.18 |  | 
LYRSRMNSLEMTPAVRQRVIEEAK [HMOX1] | 4.04 ± 0.21 | 4.06 ± 0.26 |  | 
MAMQMQLEANADTSVEEESFGPQP [RAD51] | 5.15 ± 0.25 | 5.26 ± 0.13 |  | 
MARNPAAIDMFIIGATFTDWFTSY [FBXO3] | 3.1 ± 0.62 | 2.84 ± 0.57 |  | 
MARPLVPSSQKALLLELKGLQEEP [CDC34] | 4.06 ± 0.13 | 3.98 ± 0.33 |  | 
MASPDDPLRADHMVKEPVEDTDPS [EDARADD] | 5.52 ± 0.17 | 5.63 ± 0.2 |  | 
MATESVDHELGRCTDSVVKYELMR [EHMT1] | 3.65 ± 0.29 | 3.69 ± 0.19 |  | 
MATQADLMELDMAMEPDRKAAVSH [CTNNB1] | 4.78 ± 0.19 | 4.95 ± 0.15 |  | 
MDDPKGDFITLYQMASQSSASHYK [M1AP] | 3.27 ± 0.25 | 3.31 ± 0.22 |  | 
MEAGERIDASQLPHRVLETRGHAI [SMIM2] | 4.19 ± 0.44 | 4.02 ± 0.6 |  | 
MEAVLNELVSVEDLLKFEKKFQSE [FIS1] | 3.69 ± 0.25 | 3.65 ± 0.27 |  | 
